The record followed here is publication PMC7054835, “MyD88 Death-Domain Oligomerization Determines Myddosome Architecture: Implications for Toll-like Receptor Signaling” (Structure(London, England:1993), 2020).

This series deals with the molecule itself. Nature of the series: AUC; sedimentation velocity (30,000 rev/min) and sedimentation equilibrium (3200 and 4200 rev/min, 250 and 280 nm) of hMyD88^DD alone, 35 uM, 293 K, 20 mM Tris, 20 mM NaCl, pH 8.0, 5% glycerol.

B1: human MyD88 death domain construct (N-terminal death and intermediate domains of hMyD88, 1-151) (domain or fragment, UniProt Q99836 1-151, looked up)
chain: MAAGGPGAGSAAPVSSTSSLPLAALNMRVRRRLSLFLNVRTQVAADWTALAEEMDFEYLEIRQLETQADPTGRLLDAWQGRPGASVGRLLELLTKLGRDDVLLELGPSIEEDCQKYILKQQQEEAEKPLQVAAVDSSVPRTAELAGITTLD
notes: Myeloid differentiation primary response 88 (MyD88), human, residues 1-151: death domain plus a 30-residue segment of the intermediate domain; printed monomer mass 17.5 kDa; Forms open-ended helical filaments of several hundred subunits at 35 uM and above; The model in the map holds 103 residues per subunit and ends at Q121; also called hMyD88^DD; MyD88^DD; source: E. coli BL21 DE3 Rosetta 2, …
With B1, the binding result is given as “binds”.
